The text below walks through data of PMC6811625, “Protein folding while chaperone bound is dependent on weak interactions” (Nature Communications, 2019).

B1: wild-type Gallus gallus Fyn SH3 domain (T85-D142) (domain or fragment)
chain: not shown
notes: 7 residues added to the N terminus of the domain; Tyrosine-protein kinase Fyn, Gallus gallus, SH3 domain, residues T85-D142; a single arginine added to the C terminus of the domain; The same protein was measured native and unfolded (diluted from 9.5 M urea); the quantity of each row says which state; Primer 1 has a BamHI site (GGA TCC, Gly-Ser) before GAMVQIS, so further residues may remain after …
B2: SpyQ100L (natural protein, E. coli, UniProt P77754 24-161, looked up)
chain: ADTTTAAPADAKPMMHHKGKFGPHQDMMFKDLNLTDAQKQQIREIMKGQRDQMKRPPLEERRAMHDIIASDTFDKVKAEAQIAKMEEQRKANMLAHMETLNKIYNILTPEQKKQFNANFEKRLTERPAAKGKMPATAE
notes: Spy of E. coli with Q100L; also called Spy variant Q100L; source: E. coli BL21 (DE3), purified (Ni-His Trap, HiTrap Q, Superdex 75); not shown: His, N-terminal, cleaved; SUMO, N-terminal, cleaved
B3: wild-type Spy (natural protein, E. coli, UniProt P77754 24-161, looked up)
chain: ADTTTAAPADAKPMMHHKGKFGPHQDMMFKDLNLTDAQKQQIREIMKGQRDQMKRPPLEERRAMHDIIASDTFDKVKAEAQIAKMEEQRKANMLAHMETQNKIYNILTPEQKKQFNANFEKRLTERPAAKGKMPATAE
notes: ATP-independent periplasmic chaperone Spy of E. coli; also called SpyWT; Spy dimer; source: E. coli BL21 (DE3), purified (Ni-His Trap, HiTrap Q, Superdex 75); not shown: His, N-terminal, cleaved; SUMO, N-terminal, cleaved
B4: SpyH96L (natural protein, E. coli, UniProt P77754 24-161, looked up)
chain: ADTTTAAPADAKPMMHHKGKFGPHQDMMFKDLNLTDAQKQQIREIMKGQRDQMKRPPLEERRAMHDIIASDTFDKVKAEAQIAKMEEQRKANMLALMETQNKIYNILTPEQKKQFNANFEKRLTERPAAKGKMPATAE
notes: Spy of E. coli with H96L; also called Spy variant H96L; source: E. coli BL21 (DE3), purified (Ni-His Trap, HiTrap Q, Superdex 75); not shown: His, N-terminal, cleaved; SUMO, N-terminal, cleaved

Holding throughout (settings): both partners purified
The test “SpyH96L” addresses B4. Nature of the test: ITC; MicroCal iTC200, 25 °C; HN buffer (40 mM HEPES pH 7.5, 50 mM NaCl) with 0.83 M urea; 2.4 mM SH3 in the syringe titrated into 100 μM Spy or Spy variant in the cell; one-site model; native SH3. For orientation: ITC needs no label: the signal is the heat of the interaction.
The test “SpyQ100L” concerns the target B2. The description is as above.
Test [1] has as its target B3. The description is as above.
The target of test [2] is B3. The description is as above. This is another data set of the same source.
The target in test [3] is B1. Nature of the test: stopped-flow tryptophan fluorescence kinetics with global fitting; KinTek SF-300X, 25 °C; HN buffer, 0.83 M urea after mixing; 4.8 μM SH3, refolded from 9.5 M urea or native, mixed 1:10.5 with varied Spy (concentrations as dimer); global fit (KinTek Explorer) to the mechanism that allows folding while bound; k-3 fixed at 1000 s^-1.

As to B1, the dissociation constant (Kd) (usually the free concentration of one partner at which half of the binding sites on the other are occupied at equilibrium, for simple one-to-one binding) came out at 71 ± 19 µM with SpyH96L, 107 ± 25 µM in the test with SpyQ100L and 50 ± 6 µM with wild-type Spy [1]. The stoichiometry N (as a rule, the number of molecules, sites or subunits per partner or assembly) in the test with wild-type Spy [2] came to 1.
With B2, in test [3], the “Kd (native SH3)” value is 17 ± 1 µM; the “Kd (unfolded SH3)” value worked out at 0.04 ± 0.003 µM; the “k2 (association, unfolded SH3)” value was determined as 1.71e+08 ± 8e+06 M⁻¹ s⁻¹; the “k3 (association, native SH3)” value was determined as 6e+07 ± 2e+06 M⁻¹ s⁻¹. For the same molecule, the “k-2 (dissociation, unfolded SH3)” value in test [3] came out at 6.8 ± 0.3 s⁻¹.
Consider B3, for which, in test [3], the “Kd (native SH3)” value stood at 83 ± 55 µM; the “Kd (unfolded SH3)” value was found to be 2.9 ± 0.3 µM; the “k2 (association, unfolded SH3)” value was found to be 1.4e+07 ± 1e+06 M⁻¹ s⁻¹; the “k3 (association, native SH3)” value worked out at 1.2e+07 ± 8e+06 M⁻¹ s⁻¹. In test [3], the “k-2 (dissociation, unfolded SH3)” value was 39 ± 3 s⁻¹.
Take B4: in test [3], the “Kd (native SH3)” value came to 11 ± 1 µM; the “Kd (unfolded SH3)” value amounted to 0.76 ± 0.05 µM; the “k2 (association, unfolded SH3)” value is 2.3e+07 ± 1e+06 M⁻¹ s⁻¹; the “k3 (association, native SH3)” value is 9.1e+07 ± 1e+07 M⁻¹ s⁻¹. Besides, the “k-2 (dissociation, unfolded SH3)” value in test [3] worked out at 17.4 ± 0.7 s⁻¹.
